Reference: the supplement of paper PMC6757056
± gives the standard deviation of the averaged measurements.

B1: library; a variant is named by its letters at N, in order (parent)
chain: GCUGUCACCGGUGUAUUACCCUAGUGGUCGACCGGUCUGAUGAGUCUNNNNNNAGACGAAACAGC

Legend:
[1] = variants of: B1; experiment: normalized RNA/DNA level with ligand (relative to sTRSVctl = 100) (log10 (% of sTRSVctl)); ligand: hypoxanthine (xanthine aptamer); higher = less ribozyme self-cleavage, higher mRNA level; conditions: ligand concentration (+) RNA-Seq: 5 mM, HEK293T, reporter: mCherry (pCS4076), ligand present: yes
Summary of the method: (§1)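 RNA level was computed as RNA reads over DNA reads divided by a spiked-in non-cleaving sequence or by the top sequences, then scaled and log-transformed. Scaling was ×100 with log10, the top group was 25 sequences, and the threshold was ≥100 DNA reads. The reads came from HEK293T cells transfected at 4 µg per 6-well well with ribozyme switch library plasmids (mCherry, or eGFP in some ligand experiments). Total RNA was extracted with EDTA 72 h after transfection, with any ligand added 1 h before it.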

[2] = variants of: B1; experiment: normalized RNA/DNA level without ligand (relative to sTRSVctl = 100) (log10 (% of sTRSVctl)); ligand: hypoxanthine (xanthine aptamer); higher = less ribozyme self-cleavage, higher mRNA level; conditions: HEK293T, reporter: mCherry (pCS4076), ligand present: no
Summary of the method: as §1

Row | Variant | normalized RNA/DNA level with ligand (log10) [1] | normalized RNA/DNA level without ligand (log10) [2]
1 | ACCGCU | 1.925 ± 0.0096 | 1.89 ± 0.041
2 | ACCGCA | 1.93 ± 0.082 | 1.845 ± 0.017
3 | UCCCCC | 1.9 ± 0.075 | 1.782 ± 0.016
4 | UCCCCU | 1.996 ± 0.014 | 1.9 ± 0.023
5 | UCCCCG | 1.88 ± 0.025 | 1.5 ± 0.024
6 | CCCUGU | 1.94 ± 0.078 | 1.94 ± 0.053
7 | CCCUGG | 1.91 ± 0.028 | 1.8 ± 0.05
8 | CCCUGC | 2.04 ± 0.059 | 1.901 ± 0.0066
9 | UCCGGU | 1.98 ± 0.037 | 1.83 ± 0.054
10 | UCCGGC | 2.019 ± 0.0041 | 1.85 ± 0.056
11 | GCGACU | 1.92 ± 0.026 | 1.755 ± 0.013
12 | UCCCAU | 1.93 ± 0.032 | 1.829 ± 0.0082
13 | ACCCAG | 1.83 ± 0.03 | 1.48 ± 0.044
14 | ACCCAU | 1.93 ± 0.026 | 1.79 ± 0.051
15 | ACCCAC | 1.921 ± 0.0048 | 1.792 ± 0.0063
16 | CCGGAU | 1.9742 ± 0.0018 | 1.777 ± 0.012
17 | GCCGGG | 1.94 ± 0.023 | 1.87 ± 0.06
18 | GCCGGC | 1.96 ± 0.066 | 1.762 ± 0.015
19 | GCCGGA | 1.95 ± 0.043 | 1.93 ± 0.065
20 | ACGCUA | 1.948 ± 0.0038 | 1.69 ± 0.063
21 | ACGCUC | 2.02 ± 0.048 | 1.908 ± 0.0022
22 | ACGCUU | 1.907 ± 0.016 | 1.5 ± 0.022
23 | GCCGCC | 1.99 ± 0.068 | 1.81 ± 0.1

Row | Variant | normalized RNA/DNA level with ligand (log10) [1] | normalized RNA/DNA level without ligand (log10) [2]
24 | GCCGCU | 1.98 ± 0.05 | 1.95 ± 0.046
25 | GCCCAU | 1.929 ± 0.0057 | 1.866 ± 0.00087
26 | CCCCGU | 1.94 ± 0.022 | 1.92 ± 0.055
27 | CCCCGG | 1.985 ± 0.0052 | 1.97 ± 0.035
28 | CCCCGA | 1.95 ± 0.059 | 1.81 ± 0.025
29 | CCCCGC | 1.986 ± 0.019 | 1.9 ± 0.047
30 | CCGAUC | 1.99 ± 0.037 | 1.87 ± 0.056
31 | CCGAUG | 1.82 ± 0.064 | 1.42 ± 0.049
32 | CCGAUA | 1.92 ± 0.049 | 1.72 ± 0.059
33 | UCGAUA | 1.91 ± 0.026 | 1.57 ± 0.032
34 | UCGAUU | 1.912 ± 0.013 | 1.55 ± 0.12
35 | UCGAUG | 1.922 ± 0.011 | 1.62 ± 0.033
36 | ACGAUU | 1.837 ± 0.0076 | 1.32 ± 0.019
37 | ACGAUC | 1.963 ± 0.0088 | 1.89 ± 0.013
38 | CCGGCU | 2.04 ± 0.043 | 1.99 ± 0.024
39 | CCGGCG | 1.94 ± 0.13 | 1.72 ± 0.14
40 | CCGGCC | 1.98 ± 0.029 | 2 ± 0.051
41 | CCGGCA | 1.97 ± 0.03 | 1.895 ± 0.0097
42 | CCCCCG | 1.92 ± 0.064 | 1.93 ± 0.044
43 | CCCCCU | 2.01 ± 0.038 | 1.976 ± 0.014
44 | CCCCCA | 1.94 ± 0.029 | 1.889 ± 0.0072
45 | GCGCUU | 1.96 ± 0.065 | 1.76 ± 0.046
46 | GCGCUC | 1.919 ± 0.015 | 1.64 ± 0.052

Row | Variant | normalized RNA/DNA level with ligand (log10) [1] | normalized RNA/DNA level without ligand (log10) [2]
47 | GCGCUG | 1.86 ± 0.028 | 1.36 ± 0.03
48 | GCGCUA | 1.88 ± 0.067 | 1.68 ± 0.031
49 | ACGACC | 1.97 ± 0.051 | 1.85 ± 0.02
50 | GCGGGC | 1.86 ± 0.046 | 1.58 ± 0.084
51 | ACCGGC | 2.001 ± 0.012 | 1.96 ± 0.073
52 | ACCGGA | 1.94 ± 0.039 | 1.903 ± 0.014
53 | ACCGGU | 1.99 ± 0.076 | 1.844 ± 0.0038
54 | UCCGUC | 1.97 ± 0.059 | 2.03 ± 0.042
55 | UCCGUA | 1.956 ± 0.0079 | 1.7408 ± 0.0014
56 | CCGCAA | 1.95 ± 0.04 | 1.78 ± 0.046
57 | CCGCAU | 1.96 ± 0.048 | 1.786 ± 0.0041
58 | CCGCAC | 1.964 ± 0.013 | 1.754 ± 0.0073
59 | UCCUAG | 1.91 ± 0.066 | 1.65 ± 0.038
60 | UCCUAA | 1.956 ± 0.019 | 1.807 ± 0.017
61 | UCCUAU | 1.957 ± 0.0089 | 1.851 ± 0.0031
62 | CCCGCU | 1.94 ± 0.056 | 1.99 ± 0.03
63 | CCCGCG | 1.9 ± 0.029 | 1.84 ± 0.019
64 | UCCGAU | 1.965 ± 0.013 | 1.774 ± 0.0086
65 | UCCGAC | 1.95 ± 0.022 | 1.796 ± 0.016
66 | UCCGAA | 1.94 ± 0.0047 | 1.631 ± 0.0036
67 | ACGCAC | 1.89 ± 0.022 | 1.7 ± 0.041
68 | ACCCGU | 1.94 ± 0.024 | 1.82 ± 0.048
69 | ACCCGC | 1.91 ± 0.02 | 1.815 ± 0.016

Row | Variant | normalized RNA/DNA level with ligand (log10) [1] | normalized RNA/DNA level without ligand (log10) [2]
70 | ACCCGA | 1.95 ± 0.028 | 1.755 ± 0.0068
71 | CCCUAG | 1.89 ± 0.025 | 1.77 ± 0.12
72 | CCCUAC | 1.973 ± 0.018 | 1.9 ± 0.11
73 | CCCUAU | 1.971 ± 0.0087 | 1.94 ± 0.025
74 | UCCCGG | 1.95 ± 0.11 | 1.668 ± 0.0066
75 | UCCCGA | 1.956 ± 0.0054 | 1.8 ± 0.031
76 | UCCCGC | 1.924 ± 0.018 | 1.51 ± 0.017
77 | CCGAGU | 1.89 ± 0.03 | 1.57 ± 0.029
78 | CCGAGC | 1.899 ± 0.0048 | 1.44 ± 0.037
79 | CCGCUU | 1.96 ± 0.051 | 1.887 ± 0.0021
80 | CCGCUC | 2.005 ± 0.0034 | 1.963 ± 0.019
81 | ACCUAA | 1.942 ± 0.012 | 1.87 ± 0.028
82 | ACCUAU | 1.908 ± 0.015 | 1.792 ± 0.0054
83 | GCCCCG | 1.92 ± 0.05 | 1.52 ± 0.021
84 | GCCCCC | 1.95 ± 0.033 | 1.83 ± 0.078
85 | GCCCCU | 1.93 ± 0.029 | 1.933 ± 0.0028
86 | GCCCCA | 1.965 ± 0.0094 | 1.85 ± 0.05
87 | UCCGCC | 1.992 ± 0.013 | 1.773 ± 0.015
88 | UCCGCA | 1.9294 ± 0.00025 | 1.807 ± 0.014
89 | UCCGCU | 1.94 ± 0.055 | 1.944 ± 0.0031
90 | CCGAAU | 1.9 ± 0.083 | 1.66 ± 0.028
91 | CCGAAC | 1.9 ± 0.019 | 1.606 ± 0.0099
92 | GCGAGC | 1.81 ± 0.034 | 1.37 ± 0.079

Row | Variant | normalized RNA/DNA level with ligand (log10) [1] | normalized RNA/DNA level without ligand (log10) [2]
93 | ACGGCC | 1.96 ± 0.02 | 1.88 ± 0.029
94 | ACGGCA | 1.902 ± 0.019 | 1.702 ± 0.008
95 | ACGGCU | 1.88 ± 0.034 | 1.6 ± 0.016
96 | CCCUUG | 1.984 ± 0.013 | 1.84 ± 0.045
97 | CCCUUU | 2 ± 0.059 | 1.938 ± 0.0021
98 | CCGCCC | 2.025 ± 0.013 | 1.99 ± 0.044
99 | CCGCCA | 1.97 ± 0.045 | 1.94 ± 0.053
100 | CCGCCU | 1.94 ± 0.025 | 1.95 ± 0.051
101 | CCGCCG | 1.956 ± 0.016 | 1.66 ± 0.037
102 | GCCGAC | 1.891 ± 0.0051 | 1.55 ± 0.032
103 | UCGAGG | 1.89 ± 0.036 | 1.59 ± 0.056
104 | UCGAGC | 1.97 ± 0.029 | 1.6 ± 0.1
105 | ACCUUC | 1.958 ± 0.018 | 1.96 ± 0.03
106 | ACCUUU | 1.97 ± 0.034 | 1.89 ± 0.0069
107 | ACCUUA | 1.94 ± 0.068 | 1.86 ± 0.03
108 | GCCUCU | 2.011 ± 0.019 | 1.96 ± 0.02
109 | GCCUCA | 1.98 ± 0.07 | 1.9 ± 0.024
110 | GCCUCC | 1.95 ± 0.043 | 1.95 ± 0.023
111 | CCCUCG | 1.93 ± 0.087 | 1.8103 ± 0.0013
112 | CCCUCC | 1.95 ± 0.065 | 2 ± 0.08
113 | CCCUCA | 1.978 ± 0.0074 | 1.9723 ± 0.00098
114 | GCCCUA | 1.97 ± 0.052 | 1.8733 ± 0.00068
115 | GCCCUC | 1.97 ± 0.035 | 1.88 ± 0.058
